Molecular target: CXCR2 (human) (UniProt P25025)
Sequence of UniProt P25025 (P25025 whole entry): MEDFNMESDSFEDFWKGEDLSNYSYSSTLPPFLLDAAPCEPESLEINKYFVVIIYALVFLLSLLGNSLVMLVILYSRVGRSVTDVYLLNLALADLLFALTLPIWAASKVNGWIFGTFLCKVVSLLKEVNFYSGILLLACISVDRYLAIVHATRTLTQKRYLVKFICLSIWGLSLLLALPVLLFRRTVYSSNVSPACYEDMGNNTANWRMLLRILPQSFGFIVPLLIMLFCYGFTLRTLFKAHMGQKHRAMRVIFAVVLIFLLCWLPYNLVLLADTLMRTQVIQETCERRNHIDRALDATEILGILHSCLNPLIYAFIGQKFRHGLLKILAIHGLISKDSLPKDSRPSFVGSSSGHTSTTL

“vCXCL1GT5, the non-ELR CXC chemokine encoded by HCMV UL146 genotype 5 (Davis strain), wild type (1–97) (ligand)” showed an IP accumulation (G protein signaling, Gqi4myr) in transfected COS-7 cells, agonism at 1 μM (% of the maximal activity of CXCL8) of 60.

Work on “vCXCL1_(GT5 (4–97)), N-terminally truncated vCXCL1GT5 (domain or fragment)” yielded an IP accumulation (G protein signaling, Gqi4myr) in transfected COS-7 cells, agonism at 1 μM (% of the efficacy of CXCL8 on CXCR2) of 31.

“vCXCL1_(GT5 (6–97)), N-terminally truncated vCXCL1GT5 (domain or fragment)” gave an IP accumulation (G protein signaling, Gqi4myr) in transfected COS-7 cells, agonism at 1 μM (% of the efficacy of CXCL8 on CXCR2) of 29.

— paper PMC8939814
